The values below come from paper PMC6377406.

The experiment deals with ΔN-PINK1-GFP (UniProt Q9BXM7). The experiment is described as follows: co-IP; GFP IP (μMACS Epitope Tag Protein Isolation kit) of lysates of transfected HEK293 cells; immunoblot. Background: Immunoblotting shows a protein as a band on a membrane.
Chain of UniProt Q9BXM7 (Q9BXM7 78-581, stated change not applied): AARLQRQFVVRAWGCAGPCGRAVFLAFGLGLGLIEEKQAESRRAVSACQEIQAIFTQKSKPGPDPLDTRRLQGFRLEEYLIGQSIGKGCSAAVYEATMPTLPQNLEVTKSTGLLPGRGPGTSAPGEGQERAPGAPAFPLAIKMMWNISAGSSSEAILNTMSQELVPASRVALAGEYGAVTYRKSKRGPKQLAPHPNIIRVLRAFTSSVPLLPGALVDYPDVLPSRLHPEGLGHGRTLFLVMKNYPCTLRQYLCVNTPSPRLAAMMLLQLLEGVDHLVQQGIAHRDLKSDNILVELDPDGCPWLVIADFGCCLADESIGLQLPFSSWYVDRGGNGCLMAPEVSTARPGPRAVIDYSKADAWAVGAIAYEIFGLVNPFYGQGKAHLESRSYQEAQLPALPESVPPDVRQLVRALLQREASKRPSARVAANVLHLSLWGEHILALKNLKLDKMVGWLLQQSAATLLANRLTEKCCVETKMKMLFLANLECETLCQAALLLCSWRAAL

On to “valosin-containing protein (VCP), endogenous in HEK293 cells (from UniProt P55072 1-806) (natural protein)”, for which the fold of VCP pulled down against OMM-PINK1-GFP is 4 fold.
